Here are results for one molecule from patent US20230270877A1 (Seagen, published 2023).

One may read the EC50 (read off the curve) as the concentration giving half of the maximal effect.

The target in this experiment is T1, human FcγRIIIa (human, UniProt P08637 17-254).
T1 construct: whole, on cells
Nature of the experiment: flow cytometry on CHO cells transfected with human FcγRIIIa, PE anti-human IgG Fc secondary, GEO mean fluorescence.

T1 sequence (P08637 17-254): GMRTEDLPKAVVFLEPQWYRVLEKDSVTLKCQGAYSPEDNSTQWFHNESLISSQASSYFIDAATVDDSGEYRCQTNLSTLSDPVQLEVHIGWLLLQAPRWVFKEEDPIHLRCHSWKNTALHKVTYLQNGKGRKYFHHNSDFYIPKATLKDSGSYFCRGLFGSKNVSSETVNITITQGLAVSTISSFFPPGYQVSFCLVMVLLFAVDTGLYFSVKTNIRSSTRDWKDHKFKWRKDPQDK

B1: SEA-CD40 (nonfucosylated hS2C6) (antibody, human IgG1, kappa)
heavy: not shown
light: DIQMTQSPSSLSASVGDRVTITCRSSQSLVHSNGNTFLHWYQQKPGKAPKLLIYTVSNRFSGVPSRFSGSGSGTDFTLTISSLQPEDFATYFCSQTTHVPWTFGQGTKVEIKRTVAAPSVFIFPPSDEQLKSGTASVVCLLNNFYPREAKVQWKVDNALQSGNSQESVTEQDSKDSTYSLSSTLTLSKADYEKHKVYACEVTHQGLSSPVTKSFNRGEC
notes: also called nonfucosylated humanized S2C6
For the molecule B1, the “EC50 (read off the curve)” value is about 1 µg/mL.
